Data on eight substances can be found in patent US20240301076A1.

For the assay, the target named is human CXCR2 (human) (UniProt P25025). Nature of the assay: cell-based or functional assay.
Chain of human CXCR2 (human) (P25025 whole entry): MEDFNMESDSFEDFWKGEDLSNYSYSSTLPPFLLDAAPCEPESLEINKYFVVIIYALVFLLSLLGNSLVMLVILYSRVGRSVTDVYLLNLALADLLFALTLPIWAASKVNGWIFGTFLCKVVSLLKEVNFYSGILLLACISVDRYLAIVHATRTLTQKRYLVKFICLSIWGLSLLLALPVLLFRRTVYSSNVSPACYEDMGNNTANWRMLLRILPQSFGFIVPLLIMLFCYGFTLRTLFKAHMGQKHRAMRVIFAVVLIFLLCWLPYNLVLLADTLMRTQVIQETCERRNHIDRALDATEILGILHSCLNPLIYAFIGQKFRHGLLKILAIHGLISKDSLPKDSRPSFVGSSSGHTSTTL

Chain of human CXCL2 (P19875 35-107 limits assumed): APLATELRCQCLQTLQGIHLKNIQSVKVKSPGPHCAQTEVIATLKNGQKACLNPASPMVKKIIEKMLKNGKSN
Chain of human CXCL1 (P09341 35-107 limits assumed): as the sequence (P19875 35-107 limits assumed) above, with P2S, L3V, L20P, K27N, Q48R, M58I, K68N, N69S, G70D counted along it
Chain of human CXCL6 (P80162 38-114 limits assumed): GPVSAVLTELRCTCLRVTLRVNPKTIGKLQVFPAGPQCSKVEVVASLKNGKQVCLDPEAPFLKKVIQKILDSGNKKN
Chain of human CXCL5 (P42830 37-114 limits assumed): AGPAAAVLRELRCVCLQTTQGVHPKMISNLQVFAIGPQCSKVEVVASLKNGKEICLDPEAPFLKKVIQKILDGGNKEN
Chain of human CXCL8 (P10145 28-99 limits assumed): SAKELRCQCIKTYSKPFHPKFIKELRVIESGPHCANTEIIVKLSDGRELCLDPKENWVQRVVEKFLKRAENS
Chain of human CXCL3 (P19876 35-107 limits assumed): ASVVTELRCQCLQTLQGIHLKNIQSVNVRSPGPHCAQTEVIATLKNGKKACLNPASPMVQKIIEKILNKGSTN

In the case of “Antagonist 3 (anti-CXCR2 antibody clone 48311, R&D systems MAB331-500)”, the CXCL1 IC50, calcium flux was 30.7 nM; the CXCL1 IC50, β-arrestin recruitment stood at 14.8 nM; the CXCL1 Maximal Inhibition %, calcium flux was 37%; the CXCL1 Maximal Inhibition %, β-arrestin recruitment stood at 85%. Moreover, the CXCL5 IC50, β-arrestin recruitment was 8.12 nM; the CXCL5 Maximal Inhibition %, β-arrestin recruitment was determined as 96%; the CXCL8 Maximal Inhibition %, calcium flux turned out to be 18%; the CXCL8 Maximal Inhibition %, β-arrestin recruitment worked out at 82%.
As for “Antagonist 4 (anti-CXCR2 antibody clone 6C6, BD Biosciences 555932)”, the CXCL1 IC50, calcium flux was determined as 1.29 nM; the CXCL1 IC50, β-arrestin recruitment came out at 1.47 nM; the CXCL1 Maximal Inhibition %, calcium flux is 93%; the CXCL1 Maximal Inhibition %, β-arrestin recruitment is 96%. The CXCL5 IC50, β-arrestin recruitment is 0.75 nM; the CXCL5 Maximal Inhibition %, β-arrestin recruitment was 99%; the CXCL8 IC50, β-arrestin recruitment is 1.01 nM; the CXCL8 Maximal Inhibition %, calcium flux came to 1%. This substance gave a CXCL8 Maximal Inhibition %, β-arrestin recruitment of 94%.
As to “human CXCL1 (from UniProt P09341 35-107) (ligand)”, the EC50 mean, Tango assay was found to be 2.3 nM and the EC50 mean, calcium flux assay worked out at 2.62 nM.
For “human CXCL2 (from UniProt P19875 35-107) (ligand)”, in that order: 33.3 nM and 37 nM.
“human CXCL3 (from UniProt P19876 35-107) (ligand)”: the EC50 mean, Tango assay amounted to 11.9 nM and the EC50 mean, calcium flux assay was found to be 12.2 nM.
On to “human CXCL5 (from UniProt P42830 37-114) (ligand)”, for which the EC50 mean, Tango assay worked out at 97.7 nM and the EC50 mean, calcium flux assay worked out at 39.2 nM.
The matching figures for “human CXCL6 (from UniProt P80162 38-114) (ligand)”: 9.4 nM and 28.9 nM.
The matching figures for “human CXCL8 (from UniProt P10145 28-99) (ligand)”: 2.2 nM and 3.2 nM.
